Reference: patent EP4663199A1

Molecular target: bispecific binding molecule comprising a first specific binding molecule (comprising SEQ ID NO:265 a)
Sequence (chain, as listed by the source, chain 1 of 3): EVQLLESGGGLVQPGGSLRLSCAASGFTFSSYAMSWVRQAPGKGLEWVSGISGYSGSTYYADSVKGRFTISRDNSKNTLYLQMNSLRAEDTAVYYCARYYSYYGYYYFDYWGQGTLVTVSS
Sequence (chain, as listed by the source, chain 2 of 3): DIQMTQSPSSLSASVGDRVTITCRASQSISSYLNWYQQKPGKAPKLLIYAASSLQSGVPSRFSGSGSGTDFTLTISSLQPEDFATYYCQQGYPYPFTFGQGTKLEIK
Sequence (chain, as listed by the source, chain 3 of 3): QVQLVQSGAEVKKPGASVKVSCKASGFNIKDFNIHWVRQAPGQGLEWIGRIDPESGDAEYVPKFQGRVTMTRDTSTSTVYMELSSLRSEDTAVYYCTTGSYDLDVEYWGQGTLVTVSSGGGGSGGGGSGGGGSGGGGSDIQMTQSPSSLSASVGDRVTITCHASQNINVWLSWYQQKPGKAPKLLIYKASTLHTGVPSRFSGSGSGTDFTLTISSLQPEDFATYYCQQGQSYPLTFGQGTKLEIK

## FIGITELKK (modifications not checked) [tag moiety … (SEQ ID NO:2)]
  Kd: 9.4 pM
